Reference: the Human Domainome abundance scans (Beltran et al. 2025)
± gives the uncertainty stated by the source.

B1: Cullin-9, residues 2234 to 2275; numbered along this chain, Q8IWT3 (parent)
chain: KRCPSCQAPIEKNEGCLHMTCAKCNHGFCWRCLKSWKPNHKD

Variants of: B1
Test: abundance fitness (aPCA) (normalised: wild type 0, dead -1); higher = more abundant; growth selection in yeast, the domain comes from the species named
Conditions: Homo sapiens
In the case of KRCPSCQAPIEKNEGCLHMTCAKCKHGFCWRCLKSWKPNHKD [N25K], the abundance fitness is reported as -0.092 ± 0.14. For KRCPSCQAPIEKNEGCLHMTCAKCQHGFCWRCLKSWKPNHKD [N25Q], the abundance fitness was 0.082 ± 0.14. For KRCPSCQAPIEKNEGCLHMTCAKCDHGFCWRCLKSWKPNHKD [N25D], the abundance fitness was 0.087 ± 0.12. In the case of KRCPSCQAPIEKNEGCLHMTCAKCNHGFCWRCLKSTKPNHKD [W36T], the abundance fitness is reported as 0.147 ± 0.1. For KRCPSCQAPIEKNEGCLHMTCAKCNHGFCWRCLKSWKPCHKD [N39C], the abundance fitness was -0.093 ± 0.15. With KRCPSCQAPIEKNEGCLHMTCAKCNHGFCWRCLKSWKPKHKD [N39K] the abundance fitness was 0.045 ± 0.14. In the case of KRCPSCQAPIEKNEGCLHMTCAKCNHGFCWRCLKSWKPQHKD [N39Q], the abundance fitness is reported as -0.152 ± 0.11. For KRCPSCQAPIEKNEGCLHMTCAKCNHGFCWRCLKSWKPGHKD [N39G], the abundance fitness was 0.203 ± 0.073. In the case of KRCPSCQAPIEKNEGCLHMTCAKCNHGFCWRCLKSWKPDHKD [N39D], the abundance fitness is reported as 0.244 ± 0.11. KRCPSNQAPIEKNEGCLHMTCAKCNHGFCWRCLKSWKPNHKD [C6N] showed an abundance fitness of 0.056 ± 0.31. KRCPSMQAPIEKNEGCLHMTCAKCNHGFCWRCLKSWKPNHKD [C6M] gave an abundance fitness of -0.447 ± 0.12. Work on KRCPSLQAPIEKNEGCLHMTCAKCNHGFCWRCLKSWKPNHKD [C6L] yielded an abundance fitness of -0.295 ± 0.12. KRCPSKQAPIEKNEGCLHMTCAKCNHGFCWRCLKSWKPNHKD [C6K] gave an abundance fitness of -0.515 ± 0.19. With KRCPSTQAPIEKNEGCLHMTCAKCNHGFCWRCLKSWKPNHKD [C6T] the abundance fitness was -0.347 ± 0.098. In the case of KRCPSCQAPIEKNEGCLHMTCAKCNHGFCWRCLGSWKPNHKD [K34G], the abundance fitness is reported as -0.194 ± 0.073. Work on KRCPSCQAPIEKNEGCLHMTCAKCNHGFCWRCLNSWKPNHKD [K34N] yielded an abundance fitness of -0.579 ± 0.23. KRCPSCQAPIEKNEGCLHMTCAKCNHGFCWRCLWSWKPNHKD [K34W] gave an abundance fitness of -0.765 ± 0.11. Work on KRCPSCQAPIEKNEGCLHMTCAKCNHGFCWRCLISWKPNHKD [K34I] yielded an abundance fitness of -0.539 ± 0.14. Work on KRCPSCQAPIEKNEGCKHMTCAKCNHGFCWRCLKSWKPNHKD [L17K] yielded an abundance fitness of -0.862 ± 0.17. Work on KRCPSCQAPIEKNEGCRHMTCAKCNHGFCWRCLKSWKPNHKD [L17R] yielded an abundance fitness of -0.614 ± 0.085. For KRCPSCQAPIEKNEGCNHMTCAKCNHGFCWRCLKSWKPNHKD [L17N], the abundance fitness was -0.858 ± 0.21. In the case of KRCPSCQAPIEKNEGCMHMTCAKCNHGFCWRCLKSWKPNHKD [L17M], the abundance fitness is reported as -0.071 ± 0.13. With KRCPSCQAPIEKNEGCPHMTCAKCNHGFCWRCLKSWKPNHKD [L17P] the abundance fitness was -0.047 ± 0.12. For KRCPSCQAPIHKNEGCLHMTCAKCNHGFCWRCLKSWKPNHKD [E11H], the abundance fitness was -0.138 ± 0.3. In the case of KRCPSCQAPIDKNEGCLHMTCAKCNHGFCWRCLKSWKPNHKD [E11D], the abundance fitness is reported as -0.137 ± 0.2. Variant KRCPSCQAPIQKNEGCLHMTCAKCNHGFCWRCLKSWKPNHKD [E11Q] has an abundance fitness of -0.448 ± 0.33. KRCPSCQAPIEKNEGCLHMTCAKCNHGFCWRCLKSWKRNHKD [P38R] showed an abundance fitness of -0.383 ± 0.077. KRCPSCQAPIEKNEGCLHMTCAKCNHGFCWRCLKSWKANHKD [P38A] showed an abundance fitness of -0.114 ± 0.092. Variant KRCPSCQAPIEKNEGCLHMTCAKWNHGFCWRCLKSWKPNHKD [C24W] has an abundance fitness of -0.784 ± 0.11. Variant KRCPSCQAPIEKNEGCLHMTCAKRNHGFCWRCLKSWKPNHKD [C24R] has an abundance fitness of -0.594 ± 0.086. KRCPSCQAPIEKNEGCLHMTCAKMNHGFCWRCLKSWKPNHKD [C24M] showed an abundance fitness of -0.574 ± 0.2. KRCPSCQAPIEKNEGCLHMTCAKANHGFCWRCLKSWKPNHKD [C24A] showed an abundance fitness of -0.45 ± 0.094. For KRCPSCQAPIEKNEGCLHMTCAKCNHGFEWRCLKSWKPNHKD [C29E], the abundance fitness was -0.432 ± 0.11. For KRCPSCQAPIEKNEGCLHMTCAKCNHGFWWRCLKSWKPNHKD [C29W], the abundance fitness was -1.17 ± 0.17. KRCPSCQAPIEKNEGCLHMTCAKCNHGFYWRCLKSWKPNHKD [C29Y] gave an abundance fitness of -0.847 ± 0.21. With KRCPSCQAPIEKNEGCLHMTCAKCNHGFRWRCLKSWKPNHKD [C29R] the abundance fitness was -0.888 ± 0.096. Work on KRCPSCQAPIEKNEGCLHMTCAKCNHGFCWRCRKSWKPNHKD [L33R] yielded an abundance fitness of -0.418 ± 0.079. Work on KRCPSCQAPIEKNEGCLHMTCAKCNHGFCWRCIKSWKPNHKD [L33I] yielded an abundance fitness of -0.501 ± 0.19. KRCPSCQAPIEKNEGCLHMTCAKCNHGFCWRCEKSWKPNHKD [L33E] showed an abundance fitness of 0.02 ± 0.098. Variant KRCPSCQAPIEKNEGCLHMTCAKCNKGFCWRCLKSWKPNHKD [H26K] has an abundance fitness of -0.314 ± 0.16. KRCPSCTAPIEKNEGCLHMTCAKCNHGFCWRCLKSWKPNHKD [Q7T] gave an abundance fitness of -0.073 ± 0.28. Work on KRCPSCQAPIEKNEGCLHMTCAKCNHGFCWRCLKSWKPNHTD [K41T] yielded an abundance fitness of -0.277 ± 0.17. For KRCPSCQAPIEKNEGCLHMTCAKCNHGFCWRCLKSWKPNHPD [K41P], the abundance fitness was 0.318 ± 0.12. For KRCPSCQAPIEKNEGCLHMTCAKCNHGFCWRCLKSWKPNMKD [H40M], the abundance fitness was 0.13 ± 0.1. KRCPSCQAPIEKNEGCLHMTCAKCNHGFCWRCLKSWKPNAKD [H40A] gave an abundance fitness of 0.05 ± 0.077. With KRCPSCQAPIEKNEGCLHMTCAKCNHGFCWRCLKSWKPNEKD [H40E] the abundance fitness was 0.182 ± 0.11. For KRCPSCQAPIEKNEGCLHMTCAKCNHGFCWRFLKSWKPNHKD [C32F], the abundance fitness was -0.744 ± 0.17. With KRCPSCQAPIEKNEGCLHMTCAKCNHGFCWRRLKSWKPNHKD [C32R] the abundance fitness was -0.894 ± 0.098. Variant KRCPSCQAPIEKNEGCLHMTCAKCNHGFCWRNLKSWKPNHKD [C32N] has an abundance fitness of -0.472 ± 0.18. KRCPSCQAPIEKNEGCLHMTCAKCNHGFCWRMLKSWKPNHKD [C32M] gave an abundance fitness of -0.545 ± 0.14. Variant KRCPSCQAPIEKNEGCLHMTCAKCNHGFCWRALKSWKPNHKD [C32A] has an abundance fitness of -0.632 ± 0.095. KRCPSCQAPIEKNEGCLHMTCAKCNHGFCWRVLKSWKPNHKD [C32V] gave an abundance fitness of -0.983 ± 0.12. KRCPSCQAPIEKNEGCLHMTCAKCNHGDCWRCLKSWKPNHKD [F28D] showed an abundance fitness of 0.101 ± 0.17. Work on KRCPSCQAPIEKNEGCLHMTCAKCNHGYCWRCLKSWKPNHKD [F28Y] yielded an abundance fitness of -0.049 ± 0.21. Work on KRCPSCQAPIEKNEGCLHMTCAKCNHGTCWRCLKSWKPNHKD [F28T] yielded an abundance fitness of -0.219 ± 0.1. Variant KRCPMCQAPIEKNEGCLHMTCAKCNHGFCWRCLKSWKPNHKD [S5M] has an abundance fitness of 0.395 ± 0.11. For KRCPYCQAPIEKNEGCLHMTCAKCNHGFCWRCLKSWKPNHKD [S5Y], the abundance fitness was -0.291 ± 0.17. Work on KRCPSCQAPIEKNEGCLHMTCAKCNHGFCWRCLKSWKPNHKE [D42E] yielded an abundance fitness of -0.09 ± 0.13. Work on KRCPSCQAPIEKNEGCLHMTCAKCNHGFCWRCLKSWKPNHKR [D42R] yielded an abundance fitness of -0.951 ± 0.2. Variant KRCPSCQAPIEKNEGCLHMTCAKCNHGFCWRCLKSWKPNHKS [D42S] has an abundance fitness of -0.387 ± 0.13.
